Results on one substance are retold here after PMC8622885.

The assay addresses thermostable exoshell (tES) (Archaeoglobus fulgidus) (UniProt O29424). As to the kind of experiment: AUC; unpublished observations; no conditions given.
UniProt O29424, sequence (O29424 entry or part of it): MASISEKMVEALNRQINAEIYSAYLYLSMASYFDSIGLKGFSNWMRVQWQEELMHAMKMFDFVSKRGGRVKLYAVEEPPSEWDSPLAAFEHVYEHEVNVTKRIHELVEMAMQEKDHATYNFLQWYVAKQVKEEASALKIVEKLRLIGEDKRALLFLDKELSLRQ

For “horseradish peroxidase (HRP) (from UniProt P00433 31-338) (enzyme)”, the stoichiometry N (HRP molecules per tES) was determined as 2.
